# Reference: PMC10662374, “Structures of the interleukin 11 signalling complex reveal gp130 dynamics and the inhibitory mechanism of a cytokine variant” (Nature Communications, 2023)
# “And” between values parts separate entries of the source, which are not always exact repeats. Equal values may be shown once.
# T1: IL-11Rα D1-D3 (human, UniProt Q14626 23-319)
# T1 construct: interleukin 11 receptor subunit alpha, human, C-terminally truncated form with the structured extracellular domains D1-D3; Secreted with a honeybee-melittin signal peptide; tag removed with TEV protease; N-glycosylated; also called IL11RA; RA; not shown: His8, N-terminal, cleaved
# T1 sequence: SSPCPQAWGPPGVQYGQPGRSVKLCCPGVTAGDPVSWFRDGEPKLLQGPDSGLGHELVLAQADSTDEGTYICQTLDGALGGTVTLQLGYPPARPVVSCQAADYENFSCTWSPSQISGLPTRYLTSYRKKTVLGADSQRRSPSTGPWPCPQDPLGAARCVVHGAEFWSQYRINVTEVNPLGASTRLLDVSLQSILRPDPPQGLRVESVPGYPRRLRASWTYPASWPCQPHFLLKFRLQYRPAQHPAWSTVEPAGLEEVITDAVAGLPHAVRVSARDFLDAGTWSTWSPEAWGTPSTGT
# T2: IL-11Rα_(D1-D3) (human, UniProt Q14626 23-319, N-linked glycans (N105, N172 seen in the structures))
# T2 construct: Secreted with a honeybee-melittin signal peptide; also called C-terminally truncated form of IL-11Rα; not shown: His8, N-terminal, cleaved
# T2 sequence: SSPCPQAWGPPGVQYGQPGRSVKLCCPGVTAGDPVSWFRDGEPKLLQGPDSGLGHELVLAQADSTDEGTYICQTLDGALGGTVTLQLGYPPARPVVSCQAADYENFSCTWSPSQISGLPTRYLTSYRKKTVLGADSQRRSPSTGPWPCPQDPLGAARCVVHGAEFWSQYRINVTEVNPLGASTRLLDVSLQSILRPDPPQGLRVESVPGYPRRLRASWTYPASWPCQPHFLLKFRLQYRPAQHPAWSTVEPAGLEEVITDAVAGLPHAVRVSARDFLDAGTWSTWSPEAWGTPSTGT
# T3: IL-11RαD1-D3 (C-terminally truncated form of human IL-11Rα, structured extracellular domains D1-D3) (human, UniProt Q14626 23-319)
# T3 construct: interleukin 11 receptor subunit alpha, human, domains D1-D3 (C-terminally truncated extracellular region); Expressed with a honeybee-melittin signal peptide; not shown: His8, N-terminal, cleaved
# T3 sequence: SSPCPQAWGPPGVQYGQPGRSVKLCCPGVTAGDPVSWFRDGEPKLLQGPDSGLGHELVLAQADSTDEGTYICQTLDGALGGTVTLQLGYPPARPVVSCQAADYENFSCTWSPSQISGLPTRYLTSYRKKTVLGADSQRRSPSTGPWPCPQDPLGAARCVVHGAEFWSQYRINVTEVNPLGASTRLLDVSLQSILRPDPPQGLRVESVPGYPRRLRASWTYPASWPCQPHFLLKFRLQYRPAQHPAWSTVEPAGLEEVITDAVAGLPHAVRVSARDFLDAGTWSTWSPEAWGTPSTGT
# T4: IL-11Δ10/IL-11Rα_(D1-D3) binary complex (human, UniProt P20809 32-199; Q14626 23-319)
# T4 construct: IL-11, human, IL-11Δ10, as m1; numbers count on: the mature protein; IL-11Rα, human, D1-D3, as m8; m1 with m8; also called IL-11Rα_(D1-D3)/IL-11Δ10 binary complex; binary IL-11/IL-11Rα complex; source: formed from the purified proteins (IL-11Δ10 from E. coli, IL-11Rα_(D1-D3) from Sf21); in ITC by titrating the cytokine into IL-11Rα; not shown: His6, N-terminal, cleaved; His8, N-terminal, cleaved; …
# T4 sequence 1: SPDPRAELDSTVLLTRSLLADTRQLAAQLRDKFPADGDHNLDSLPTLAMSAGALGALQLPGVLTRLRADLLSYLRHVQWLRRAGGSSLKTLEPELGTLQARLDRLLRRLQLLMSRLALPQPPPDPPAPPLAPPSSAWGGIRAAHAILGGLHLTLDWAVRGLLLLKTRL
# T4 sequence 2: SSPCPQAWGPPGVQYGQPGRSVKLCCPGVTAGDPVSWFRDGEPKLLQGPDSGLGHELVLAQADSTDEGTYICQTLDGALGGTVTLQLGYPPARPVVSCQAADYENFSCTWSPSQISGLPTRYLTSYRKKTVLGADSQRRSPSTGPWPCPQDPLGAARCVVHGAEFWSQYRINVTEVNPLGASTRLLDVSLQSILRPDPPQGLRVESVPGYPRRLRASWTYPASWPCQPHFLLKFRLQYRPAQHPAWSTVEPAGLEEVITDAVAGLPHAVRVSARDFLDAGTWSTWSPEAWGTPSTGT
# How the values were obtained:
# IL-11Rα D1-D3 = molecular target: T1, IL-11Rα D1-D3; assay: SPR; biotinylated IL-11Δ10-avi or IL-11Δ10/Mutein-avi immobilised on a streptavidin chip (SAHC 1500M); IL-11Rα D1-D3 flowed over, nine-point two-fold dilution series from 500 nM; Biacore T200, 25 °C, TBS pH 8.5 + 0.05% Tween, 30 uL/min; 1:1 kinetic model; two replicate dilution series (run 1, run 2); conditions: both partners purified
# IL-11Rα_(D1-D3) [1] = molecular target: T2, IL-11Rα_(D1-D3); assay: SPR; Biacore T200, 25 °C, TBS pH 8.5 + 0.05% Tween, 30 μL/min; biotinylated IL-11-avi on a streptavidin chip, IL-11Rα_(D1-D3) flowed over (two-fold dilutions from 500 nM), 1:1 kinetic model, n = 2; conditions: both partners purified
# [2] = molecular target: T3, IL-11RαD1-D3 (C-terminally truncated …); assay: SPR; Biacore T200; biotinylated IL-11-avi constructs immobilised on a streptavidin chip; IL-11RαD1-D3 injected, two-fold dilutions from 500 nM; 25 °C (298 K); TBS pH 8.5 + 0.05% Tween; 30 μL/min; 1:1 kinetic model; n = 2; conditions: both partners purified
# IL-11Rα_(D1-D3) [3] = molecular target: T2, IL-11Rα_(D1-D3); assay: cell-based or functional assay
# IL-11Rα_(D1-D3) [4] = molecular target: T2, IL-11Rα_(D1-D3); assay: ITC; cytokine in the syringe (10-fold above IL-11Rα), IL-11Rα_(D1-D3) in the cell at 10 μM, TBS pH 8.5, 1:1 interaction model, n = 3; conditions: both partners purified
# [5] = molecular target: T4, IL-11Δ10/IL-11Rα_(D1-D3) binary complex; assay: ITC; gp130 in the syringe titrated against the cytokine/IL-11Rα_(D1-D3) complex formed in the cell, 288 K, TBS pH 8.5, 1:1 interaction model, n = 3; conditions: both partners purified
Kd (IL-11Rα D1-D3),koff (IL-11Rα D1-D3),kon (IL-11Rα D1-D3),Binder,further results
78.5 nM and 77.1 nM and 77.8 nM,0.0943 s⁻¹ and 0.125 s⁻¹,1.2e+06 M⁻¹ s⁻¹ and 1.61e+06 M⁻¹ s⁻¹ and 1.41e+06 M⁻¹ s⁻¹,"biotinylated IL-11Δ10-avi (ligand, human, biotin on the C-terminal avitag, interleukin 11, human, N-terminally truncated form IL-11Δ10; numbers count on: the mature protein; also called IL11d10; not shown: His6, N-terminal, cleaved; avitag, C-terminal, kept) SPDPRAELDSTVLLTRSLLADTRQLAAQLRDKFPADGDHNLDSLPTLAMSAGALGALQLPGVLTRLRADLLSYLRHVQWLRRAGGSSLKTLEPELGTLQARLDRLLRRLQLLMSRLALPQPPPDPPAPPLAPPSSAWGGIRAAHAILGGLHLTLDWAVRGLLLLKTRL",
,,,"biotinylated IL-11Δ10-avi (ligand, human, biotin on the C-terminal avitag, interleukin 11 (IL-11), human, N-terminally truncated form IL-11Δ10; numbers count on: the mature protein; source: E. coli BL21(DE3), biotinylated, purified as IL-11Δ10; not shown: His6, N-terminal, cleaved; avitag, C-terminal, kept) SPDPRAELDSTVLLTRSLLADTRQLAAQLRDKFPADGDHNLDSLPTLAMSAGALGALQLPGVLTRLRADLLSYLRHVQWLRRAGGSSLKTLEPELGTLQARLDRLLRRLQLLMSRLALPQPPPDPPAPPLAPPSSAWGGIRAAHAILGGLHLTLDWAVRGLLLLKTRL",koff (IL-11Rα_(D1-D3) [1]): 0.11 s⁻¹
,,,"biotinylated IL-11Δ10/Mutein-avi (ligand, human, biotin on the C-terminal avitag, interleukin 11, human, Δ10 with W147A and 58PAIDY62, as Dm7; numbers count on: the mature protein; also called IL11Δ10/Mutein - Avitag; source: E. coli BL21(DE3), biotinylated in the cells, purified as IL-11Δ10; not shown: avitag, C-terminal, kept; His6, N-terminal, cleaved) SPDPRAELDSTVLLTRSLLADTRQLAAQLRDKFPADGDHNLDSLPTLPAIDYALGALQLPGVLTRLRADLLSYLRHVQWLRRAGGSSLKTLEPELGTLQARLDRLLRRLQLLMSRLALPQPPPDPPAPPLAPPSSAAGGIRAAHAILGGLHLTLDWAVRGLLLLKTRL",Kd [2]: 33 nM; kon [2]: 1e+06 M⁻¹ s⁻¹
35.8 nM and 30.8 nM and 33.3 nM,0.035 s⁻¹ and 0.0335 s⁻¹,937000 M⁻¹ s⁻¹ and 1.14e+06 M⁻¹ s⁻¹ and 1.04e+06 M⁻¹ s⁻¹,"biotinylated IL-11Δ10/Mutein-avi (ligand, human, biotin on the C-terminal avitag, interleukin 11, human, N-terminally truncated form IL-11Δ10 with the Mutein changes; numbers count on: the mature protein; not shown: His6, N-terminal, cleaved; avitag, C-terminal, kept) SPDPRAELDSTVLLTRSLLADTRQLAAQLRDKFPADGDHNLDSLPTLPAIDYALGALQLPGVLTRLRADLLSYLRHVQWLRRAGGSSLKTLEPELGTLQARLDRLLRRLQLLMSRLALPQPPPDPPAPPLAPPSSAAGGIRAAHAILGGLHLTLDWAVRGLLLLKTRL",
,,,"IL-11_(Δ10/Mutein) (ligand, human, interleukin 11 (IL-11), human, IL-11Δ10 with W147A and AB loop residues 58-62 AMSAG changed to PAIDY; numbers count on: the mature protein; Parent construct IL-11Δ10; also called IL-11 Mutein; not shown: His6, N-terminal, cleaved) SPDPRAELDSTVLLTRSLLADTRQLAAQLRDKFPADGDHNLDSLPTLPAIDYALGALQLPGVLTRLRADLLSYLRHVQWLRRAGGSSLKTLEPELGTLQARLDRLLRRLQLLMSRLALPQPPPDPPAPPLAPPSSAAGGIRAAHAILGGLHLTLDWAVRGLLLLKTRL","IC50 of inhibition of IL-11Δ10 (20 ng/mL) mediated STAT3 activation (pSTAT3, flow cytometry) in Ba/F3 cells stably expressing human gp130 and IL-11Rα; competes with IL-11 for IL-11Rα and gp130 (IL-11Rα_(D1-D3) [3]): 850 nM; Kd (IL-11Rα_(D1-D3) [4]): 38 nM"
,,,"gp130EC (receptor, human, UniProt P40189 23-619, looked up, N-linked glycans (N21, N61, N135 seen in the structures), Secreted with a honeybee-melittin signal peptide; D5-D6 are not in the deposited model 8DPT; also called complete extracellular domains of gp130; D1-D6 domains of gp130; not shown: His8, N-terminal, cleaved) ELLDPCGYISPESPVVQLHSNFTAVCVLKEKCMDYFHVNANYIVWKTNHFTIPKEQYTIINRTASSVTFTDIASLNIQLTCNILTFGQLEQNVYGITIISGLPPEKPKNLSCIVNEGKKMRCEWDGGRETHLETNFTLKSEWATHKFADCKAKRDTPTSCTVDYSTVYFVNIEVWVEAENALGKVTSDHINFDPVYKVKPNPPHNLSVINSEELSSILKLTWTNPSIKSVIILKYNIQYRTKDASTWSQIPPEDTASTRSSFTVQDLKPFTEYVFRIRCMKEDGKGYWSDWSEEASGITYEDRPSKAPSFWYKIDPSHTQGYRTVQLVWKTLPPFEANGKILDYEVTLTRWKSHLQNYTVNATKLTVNLTNDRYLATLTVRNLVGKSDAAVLTIPACDFQATHPVMDLKAFPKDNMLWVEWTTPRESVKKYILEWCVLSDKAPCITDWQQEDGTVHRTYLRGNLAESKCYLITVTPVYADGPGSPESIKAYLKQAPPSKGPTVRTKKVGKNEAVLEWDQLPVDVQNGFIRNYTIFYRTIIGNETAVNVDSSHTEYTLSSLTSDTLYMVRMAAYTDEGGKDGPEFTFTTPKFAQGEIE",dH [5]: -4.78 kcal/mol
